What was measured:
[1] = target: T1, TSLP on over-expressing Expi293 cells (UniProt Q969D9 29-159, limits assumed); experiment: flow cytometry, 100 nM, TSLP over-expressing Expi293 over parent cells
T1 construct: whole, on cells; Target of the flow cytometry assay; also called cytokine over-expressing Expi293 cells
Protocol: (§1) All incubations and washes were in buffer containing PBS+1% BSA. MFI Ratio is defined by the mean fluorescence intensity (MFI) of the cytokine over-expressing Expi293 cell over the Expi293 parent cell. […] EC50 was calculated in GraphPad Prism.

TSLP = target: T2, TSLP (UniProt Q969D9 29-159); experiment: SPR, Carterra LSA, antibody amine-coupled, 1:1 model
T2 construct: Soluble analyte of the SPR assay
Protocol: SPR experiments were performed on a Carterra LSA SPR biosensor equipped with a HC30M chip at 25° C. in HBS-TE. Antibodies were diluted to 10 μg/mL and amine-coupled to the sensor chip by EDC/NHS activation, followed by ethanolamine HCl quenching. Increasing concentrations of analyte were flowed over the sensor chip in HBS-TE with 0.5 mg/mL BSA with 5-minute association and 15-minute dissociation. Following each injection cycle the surface was regenerated with 2× 30-second injections of IgG elution buffer (Thermo). Data were analyzed in Carterra's Kinetics Tool software with 1:1 binding model.

[2] = target: T1, TSLP on over-expressing Expi293 cells; experiment: flow cytometry titration on TSLP over-expressing Expi293 cells
Protocol: as §1

| 100 nM (MFI Ratio) [1] | Kd (TSLP) | koff (TSLP) | kon (TSLP) | EC50 [2] | Binder |
| --- | --- | --- | --- | --- | --- |
| 1.6 MFI ratio | 5.12 nM | 0.000351 s⁻¹ | 68500 M⁻¹ s⁻¹ |  | TSLP-7 (VHH, VHH-Fc (IgG2 Fc); not shown: IgG2 Fc of the VHH-Fc format) VHH: EVQLVESGGGLVQPGGSLRLSCAASGLTFGTHVMGWFRQAPGKERELVTAINPAALTTYYADSVKGRFTISADNSKNTAYLQMNSLKPEDTAVYYCARDFWSAGDSWGQGTLVTVSS |
| 1.5 MFI ratio |  |  |  |  | TSLP-15 (VHH, VHH-Fc (IgG2 Fc); not shown: IgG2 Fc of the VHH-Fc format) VHH: EVQLVESGGGLVQPGGSLRLSCAASGFILDDYAMGWFRQAPGKEREFVATIAGGYTYYADSVKGRFTISADNSKNTAYLQMNSLKPEDTAVYYCPVFDGYTRIHWGQGTLVTVSS |
| 157 MFI ratio | 7.14 nM | 0.000542 s⁻¹ | 75900 M⁻¹ s⁻¹ | 0.18 nM | TSLP-4 (VHH, VHH-Fc (IgG2 Fc); not shown: IgG2 Fc of the VHH-Fc format) VHH: EVQLVESGGGLVQPGGSLRLSCAASGFTFSSYWMGWFRQAPGKERELVSAIFSDGSTMYADSVKGRFTISADNSKNTAYLQMNSLKPEDTAVYYCTRDSTDTRYWGQGTLVTVSS |
| 89.3 MFI ratio | 10.1 nM | 0.000487 s⁻¹ | 48300 M⁻¹ s⁻¹ | 0.31 nM | TSLP-38 (VHH, VHH-Fc (IgG2 Fc); not shown: IgG2 Fc of the VHH-Fc format) VHH: EVQLVESGGGLVQPGGSLRLSCAASGFSLDYYAMGWFRQAPGKERELVSAIFSDGSALYADSVKGRFTISADNSKNTAYLQMNSLKPEDTAVYYCAKDRDTGIGAYDWGQGTLVTVSS |
| 218 MFI ratio | 6.49 nM | 0.0018 s⁻¹ | 278000 M⁻¹ s⁻¹ | 0.43 nM | TSLP-2 (VHH, VHH-Fc (IgG2 Fc); not shown: IgG2 Fc of the VHH-Fc format) VHH: EVQLVESGGGLVQPGGSLRLSCAASGLTFSTTVMGWFRQAPGKEREWVATIAGDGSTFYADSVKGRFTISADNSKNTAYLQMNSLKPEDTAVYYCADINEDWGQGTLVTVSS |
| 21.2 MFI ratio | 0.223 nM | 0.000181 s⁻¹ | 809000 M⁻¹ s⁻¹ |  | TSLP-120 (antibody, V domains shown) VH: QVQLVQSGAEVKKPGSSVKVSCKASGGTFSTYAISWVRQAPGQGLEWMGGIISINYAQKFQGRVTITADESTSTAYMELSSLRSEDTAVYYCAWGAKYALDSWGQGTLVTVSS VL: DIQMTQSPSSLSASVGDRVTITCRASQTIGTYLNWYQQKPGKAPKLLIYSASSLQSGVPSRFSGSGSGTDFTLTISSLQPEDFATYYCQQTDGNPPTFGQGTKVEIK |
| 1.3 MFI ratio | 10.2 nM | 0.000445 s⁻¹ | 43600 M⁻¹ s⁻¹ |  | TSLP-24 (VHH, VHH-Fc (IgG2 Fc); not shown: IgG2 Fc of the VHH-Fc format) VHH: EVQLVESGGGLVQPGGSLRLSCAASGGIFSINDIGWFRQAPGKEREFVAALSWIIGSGVYTYYADSVKGRFTISADNSKNTAYLQMNSLKPEDTAVYYCANEYGWGQGTLVTVSS |
| 195 MFI ratio | 7.24 nM | 0.00121 s⁻¹ | 167000 M⁻¹ s⁻¹ | 0.45 nM | TSLP-32 (VHH, VHH-Fc (IgG2 Fc); not shown: IgG2 Fc of the VHH-Fc format) VHH: EVQLVESGGGLVQPGGSLRLSCAASGNSFNNYVMGWFRQAPGKEREMVSAIFSDGSTYYADSVKGRFTISADNSKNTAYLQMNSLKPEDTAVYYCVRDSGSVSGQTFDSWGQGTLVTVSS |
| 288 MFI ratio | 19.3 nM | 0.000493 s⁻¹ | 25600 M⁻¹ s⁻¹ | 0.14 nM | TSLP-40 (VHH, VHH-Fc (IgG2 Fc); not shown: IgG2 Fc of the VHH-Fc format) VHH: EVQLVESGGGLVQPGGSLRLSCAASGLTFSRYAMGWFRQAPGKEREFVSAIFSDGSTYYADSVKGRFTISADNSKNTAYLQMNSLKPEDTAVYYCARGPNWFDPWGQGTLVTVSS |
| 157 MFI ratio | 9.67 nM | 0.000433 s⁻¹ | 44700 M⁻¹ s⁻¹ |  | TSLP-11 (VHH, VHH-Fc (IgG2 Fc); not shown: IgG2 Fc of the VHH-Fc format) VHH: EVQLVESGGGLVQPGGSLRLSCAASGFTFDDSDMGWFRQAPGKEREFVGAISWSGDSTYYKYYADSVKGRFTISADNSKNTAYLQMNSLKPEDTAVYYCANQYGWGQGTLVTVSS |
| 105 MFI ratio | 63.2 nM | 0.000996 s⁻¹ | 15800 M⁻¹ s⁻¹ | 0.43 nM | TSLP-30 (VHH, VHH-Fc (IgG2 Fc); not shown: IgG2 Fc of the VHH-Fc format) VHH: EVQLVESGGGLVQPGGSLRLSCAASGRTFSTYGMGWFRQAPGKEREFVAAMISWNGGSSTYYADSVKGRFTISADNSKNTAYLQMNSLKPEDTAVYYCTTDPAEFYDSSTYYPAPFDYWGQGTLVTVSS |
| 80.1 MFI ratio | 19.1 nM | 0.00114 s⁻¹ | 59900 M⁻¹ s⁻¹ | 0.37 nM | TSLP-3 (VHH, VHH-Fc (IgG2 Fc); not shown: IgG2 Fc of the VHH-Fc format) VHH: EVQLVESGGGLVQPGGSLRLSCAASGRIFSTYFMGWFRQAPGKERELVSAIFSDGSTYYADSVKGRFTISADNSKNTAYLQMNSLKPEDTAVYYCALDLSTVRWGQGTLVTVSS |
| 226 MFI ratio | 19.1 nM | 0.00131 s⁻¹ | 68500 M⁻¹ s⁻¹ | 0.12 nM | TSLP-23 (VHH, VHH-Fc (IgG2 Fc); not shown: IgG2 Fc of the VHH-Fc format) VHH: EVQLVESGGGLVQPGGSLRLSCAASGRIFSTYFMGWFRQAPGKERELVSAIFSDGSTYYADSVKGRFTISADNSKNTAYLQMNSLKPEDTAVYYCALDLSTVRWGQGTLVTVSS |
| 20.3 MFI ratio | 31.4 nM | 0.0016 s⁻¹ | 51000 M⁻¹ s⁻¹ | 0.18 nM | TSLP-14 (VHH, VHH-Fc (IgG2 Fc); not shown: IgG2 Fc of the VHH-Fc format) VHH: EVQLVESGGGLVQPGGSLRLSCAASGSIFSSYWMGWFRQAPGKERELVSAIFSDGSTYYADSVKGRFTISADNSKNTAYLQMNSLKPEDTAVYYCAKDYFGTGWGQGTLVTVSS |
| 108 MFI ratio | 20 nM | 0.00145 s⁻¹ | 72600 M⁻¹ s⁻¹ | 0.28 nM | TSLP-35 (VHH, VHH-Fc (IgG2 Fc); not shown: IgG2 Fc of the VHH-Fc format) VHH: EVQLVESGGGLVQPGGSLRLSCAASGCIFSTYFMGWFRQAPGKERELVSAIFSDGSTYYADSVKGRFTISADNSKNTAYLQMNSLKPEDTAVYYCALDWNLNRWGQGTLVTVSS |
| 76.2 MFI ratio | 13.9 nM | 0.00137 s⁻¹ | 98700 M⁻¹ s⁻¹ | 0.5 nM | TSLP-12 (VHH, VHH-Fc (IgG2 Fc); not shown: IgG2 Fc of the VHH-Fc format) VHH: EVQLVESGGGLVQPGGSLRLSCAASGFIFSSYWMGWFRQAPGKERELVSAIFSDGSTYYADSVKGRFTISADNSKNTAYLQMNSLKPEDTAVYYCAIDWYLNSWGQGTLVTVSS |
| 5.1 MFI ratio | 22.3 nM | 0.00178 s⁻¹ | 79700 M⁻¹ s⁻¹ |  | TSLP-18 (VHH, VHH-Fc (IgG2 Fc); not shown: IgG2 Fc of the VHH-Fc format) VHH: EVQLVESGGGLVQPGGSLRLSCAASGNIFTRNIMCWFRQAPGKEREGVSCISTGDGSTYYADSVKGRFTISADNSKNTAYLQMNSLKPEDTAVYYCAADSETSGNWVWGQGTLVTVSS |
| 2.5 MFI ratio | 27.7 nM | 0.00209 s⁻¹ | 75300 M⁻¹ s⁻¹ |  | TSLP-20 (VHH, VHH-Fc (IgG2 Fc); not shown: IgG2 Fc of the VHH-Fc format) VHH: EVQLVESGGGLVQPGGSLRLSCAASGFKLGYYAMGWFRQAPGKEREGVATIAGGTTYYADSVKGRFTISADNSKNTAYLQMNSLKPEDTAVYYCAAIGWRWGQGTLVTVSS |
| 178 MFI ratio | 19.4 nM | 0.000672 s⁻¹ | 34700 M⁻¹ s⁻¹ |  | TSLP-6 (VHH, VHH-Fc (IgG2 Fc); not shown: IgG2 Fc of the VHH-Fc format) VHH: EVQLVESGGGLVQPGGSLRLSCAASGMTFSSYVMGWFRQAPGKEREFVGEIILSKGFTYYADSVKGRFTISADNSKNTAYLQMNSLKPEDTAVYYCASGPGYYDSSAYYLYAFDIWGQGTLVTVSS |
| 37.5 MFI ratio | 2.96 nM | 0.00175 s⁻¹ | 589000 M⁻¹ s⁻¹ | 1.35 nM | TSLP-121 (antibody, V domains shown) VH: QVQLVQSGAEVKKPGSSVKVSCKASGGSFSSYAISWVRQAPGQGLEWMGGIIPMNYAQKFQGRVTITADESTSTAYMELSSLRSEDTAVYYCARQLAAALVYWGQGTLVTVSS VL: EIVLTQSPGTLSLSPGERATLSCRASQNVNTRYLAWYQQKPGQAPRLLIYAASSRATGIPDRFSGSGSGTDFTLTISSLEPEDFAVYYCQQYESSPYNFGQGTKVEIK |
| 90.4 MFI ratio | 12.1 nM | 0.00106 s⁻¹ | 88200 M⁻¹ s⁻¹ | 0.66 nM | TSLP-22 (VHH, VHH-Fc (IgG2 Fc); not shown: IgG2 Fc of the VHH-Fc format) VHH: EVQLVESGGGLVQPGGSLRLSCAASGRTFRSYVMGWFRQAPGKERELVSAIFSDGSTLYADSVKGRFTISADNSKNTAYLQMNSLKPEDTAVYYCAREDSSSGWFDYWGQGTLVTVSS |
| 0.7 MFI ratio | 10.6 nM | 0.00113 s⁻¹ | 106000 M⁻¹ s⁻¹ |  | TSLP-21 (VHH, VHH-Fc (IgG2 Fc); not shown: IgG2 Fc of the VHH-Fc format) VHH: EVQLVESGGGLVQPGGSLRLSCAASGNIFSRYIMGWFRQAPGKERELVSAIFSDGSTLYADSVKGRFTISADNSKNTAYLQMNSLKPEDTAVYYCAKGGYSSGWFDYWGQGTLVTVSS |
| 313 MFI ratio | 5.09 nM | 0.000228 s⁻¹ | 44700 M⁻¹ s⁻¹ | 3.37 nM | TSLP-26 (VHH, VHH-Fc (IgG2 Fc); not shown: IgG2 Fc of the VHH-Fc format) VHH: EVQLVESGGGLVQPGGSLRLSCAASGLTFSSYIMGWFRQAPGKERELVSAIFSDGSTLYADSVKGRFTISADNSKNTAYLQMNSLKPEDTAVYYCARDDYGGNFFDYWGQGTLVTVSS |
| 100 MFI ratio | 3.39 nM | 0.000487 s⁻¹ | 144000 M⁻¹ s⁻¹ | 0.11 nM | TSLP-36 (VHH, VHH-Fc (IgG2 Fc); not shown: IgG2 Fc of the VHH-Fc format) VHH: EVQLVESGGGLVQPGGSLRLSCAASGGTLDDYVMGWFRQAPGKEREFVGFIGSDGSTLYADSVKGRFTISADNSKNTAYLQMNSLKPEDTAVYYCTTEWDGYWGQGTLVTVSS |
| 12.3 MFI ratio | 10.8 nM | 0.00177 s⁻¹ | 164000 M⁻¹ s⁻¹ |  | TSLP-41 (VHH, VHH-Fc (IgG2 Fc); not shown: IgG2 Fc of the VHH-Fc format) VHH: EVQLVESGGGLVQPGGSLRLSCAASGRTFSAHSVYTMGWFRQAPGKEREWVSAIFSDGDTYYADSVKGRFTISADNSKNTAYLQMNSLKPEDTAVYYCAIDEGMDYDGNFYDWGQGTLVTVSS |
